Key:
O8-bA = target: T1, O8-bA; experiment: two-hybrid library CCNG1;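 also: natural log of median RNA to DNA barcode read ratio; higher means stronger binding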
T1 chain: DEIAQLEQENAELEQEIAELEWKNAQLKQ

O9-bA = target: T2, O9-bA; experiment: two-hybrid library CCNG1;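 also: natural log of median RNA to DNA barcode read ratio; higher means stronger binding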
T2 chain: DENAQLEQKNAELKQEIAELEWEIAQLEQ

O7-bA = target: T3, O7-bA; experiment: two-hybrid library CCNG1;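 also: natural log of median RNA to DNA barcode read ratio; higher means stronger binding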
T3 chain: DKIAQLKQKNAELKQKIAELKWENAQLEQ

4H918-bH = target: T4, 4H918-bH; experiment: two-hybrid library CCNG1;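 also: natural log of median RNA to DNA barcode read ratio; higher means stronger binding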
T4 chain: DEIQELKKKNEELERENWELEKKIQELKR

4H584-bA = target: T5, 4H584-bA; experiment: two-hybrid library CCNG1;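 also: natural log of median RNA to DNA barcode read ratio; higher means stronger binding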
T5 chain: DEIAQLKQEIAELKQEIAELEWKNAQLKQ

4H3974-bA = target: T6, 4H3974-bA; experiment: two-hybrid library CCNG1;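 also: natural log of median RNA to DNA barcode read ratio; higher means stronger binding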
T6 chain: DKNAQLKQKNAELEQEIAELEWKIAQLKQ

4H906-bA = target: T7, 4H906-bA; experiment: two-hybrid library CCNG1
T7 chain: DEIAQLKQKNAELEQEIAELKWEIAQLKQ

4H850-bA = target: T8, 4H850-bA; experiment: two-hybrid library CCNG1
T8 chain: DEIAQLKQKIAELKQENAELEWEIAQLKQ

4H570-bA = target: T9, 4H570-bA; experiment: two-hybrid library CCNG1
T9 chain: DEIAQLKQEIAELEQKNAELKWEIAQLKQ

4H883-bN = target: T10, 4H883-bN; experiment: two-hybrid library CCNG1
T10 chain: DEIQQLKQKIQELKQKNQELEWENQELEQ

4H3817-bA = target: T11, 4H3817-bA; experiment: two-hybrid library CCNG1
T11 chain: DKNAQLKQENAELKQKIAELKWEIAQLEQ

4H619-bA = target: T12, 4H619-bA; experiment: two-hybrid library CCNG1
T12 chain: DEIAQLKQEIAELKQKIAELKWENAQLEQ

4H3638-bA = target: T13, 4H3638-bA; experiment: two-hybrid library CCNG1
T13 chain: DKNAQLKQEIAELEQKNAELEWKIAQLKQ

4H406-AA = target: T14, 4H406-AA; experiment: two-hybrid library CCmax; conditions: mean of both orientations
T14 chain: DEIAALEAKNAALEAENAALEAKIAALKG

4H376-AA = target: T15, 4H376-AA; experiment: two-hybrid library CCmax
T15 chain: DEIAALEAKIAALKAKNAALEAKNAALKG

4H963-AA = target: T16, 4H963-AA; experiment: two-hybrid library CCmax; conditions: mean of both orientations
T16 chain: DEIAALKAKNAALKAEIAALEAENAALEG

4H688-AA = target: T17, 4H688-AA; experiment: two-hybrid library CCmax; conditions: mean of both orientations
T17 chain: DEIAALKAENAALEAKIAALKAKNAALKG

4H3855-bA = target: T18, 4H3855-bA; experiment: two-hybrid library CCNG1
T18 chain: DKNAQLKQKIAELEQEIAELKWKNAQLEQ

4H462-bN = target: T19, 4H462-bN; experiment: two-hybrid library CCNG1
T19 chain: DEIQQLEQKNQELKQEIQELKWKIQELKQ

4H3855-bH = target: T20, 4H3855-bH; experiment: two-hybrid library CCNG1
T20 chain: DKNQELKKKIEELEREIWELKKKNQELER

4H454-bA = target: T21, 4H454-bA; experiment: two-hybrid library CCNG1
T21 chain: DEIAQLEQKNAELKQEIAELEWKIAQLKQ

4H754-bA = target: T22, 4H754-bA; experiment: two-hybrid library CCNG1
T22 chain: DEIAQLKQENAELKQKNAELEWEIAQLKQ

4H4001-bA = target: T23, 4H4001-bA; experiment: two-hybrid library CCNG1
T23 chain: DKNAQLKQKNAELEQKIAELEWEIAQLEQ

4H687-bA = target: T24, 4H687-bA; experiment: two-hybrid library CCNG1
T24 chain: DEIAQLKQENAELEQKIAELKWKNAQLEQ

4H462-bA = target: T25, 4H462-bA; experiment: two-hybrid library CCNG1
T25 chain: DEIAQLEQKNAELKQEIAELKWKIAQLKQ

4H918-bA = target: T26, 4H918-bA; experiment: two-hybrid library CCNG1
T26 chain: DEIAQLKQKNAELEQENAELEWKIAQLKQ

4H568-bA = target: T27, 4H568-bA; experiment: two-hybrid library CCNG1
T27 chain: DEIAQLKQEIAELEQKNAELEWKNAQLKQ

4H797-bA = target: T28, 4H797-bA; experiment: two-hybrid library CCNG1
T28 chain: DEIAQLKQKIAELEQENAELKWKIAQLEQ

4H3843-bA = target: T29, 4H3843-bA; experiment: two-hybrid library CCNG1
T29 chain: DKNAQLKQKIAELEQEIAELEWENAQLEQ

4H883-bA = target: T30, 4H883-bA; experiment: two-hybrid library CCNG1
T30 chain: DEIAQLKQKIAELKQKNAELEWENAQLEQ

4H717-bA = target: T31, 4H717-bA; experiment: two-hybrid library CCNG1
T31 chain: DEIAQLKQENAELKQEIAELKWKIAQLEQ

4H908-bA = target: T32, 4H908-bA; experiment: two-hybrid library CCNG1
T32 chain: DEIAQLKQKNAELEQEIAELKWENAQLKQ

4H953-bA = target: T33, 4H953-bA; experiment: two-hybrid library CCNG1
T33 chain: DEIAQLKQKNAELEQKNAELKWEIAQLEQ

4H3782-bA = target: T34, 4H3782-bA; experiment: two-hybrid library CCNG1
T34 chain: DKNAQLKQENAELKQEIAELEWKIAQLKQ

4H967-bA = target: T35, 4H967-bA; experiment: two-hybrid library CCNG1
T35 chain: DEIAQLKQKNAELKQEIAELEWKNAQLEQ

4H72-bA = target: T36, 4H72-bA; experiment: two-hybrid library CCNG1
T36 chain: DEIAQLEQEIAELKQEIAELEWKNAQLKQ

4H687-bN = target: T37, 4H687-bN; experiment: two-hybrid library CCNG1
T37 chain: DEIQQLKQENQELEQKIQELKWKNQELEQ

4H607-bA = target: T38, 4H607-bA; experiment: two-hybrid library CCNG1
T38 chain: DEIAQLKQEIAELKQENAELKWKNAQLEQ

4H775-AA = target: T39, 4H775-AA; experiment: two-hybrid library CCmax; conditions: mean of both orientations
T39 chain: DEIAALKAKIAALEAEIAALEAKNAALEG

4H3409-AA = target: T40, 4H3409-AA; experiment: two-hybrid library CCmax; conditions: mean of both orientations
T40 chain: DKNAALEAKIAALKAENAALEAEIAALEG

4H3134-AA = target: T41, 4H3134-AA; experiment: two-hybrid library CCmax; conditions: mean of both orientations
T41 chain: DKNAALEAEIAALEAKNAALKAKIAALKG

4H510-AA = target: T42, 4H510-AA; experiment: two-hybrid library CCmax; conditions: mean of both orientations
T42 chain: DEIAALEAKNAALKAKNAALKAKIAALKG

4H2985-AA = target: T43, 4H2985-AA; experiment: two-hybrid library CCmax
T43 chain: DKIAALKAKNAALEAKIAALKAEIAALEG

4H390-AA = target: T44, 4H390-AA; experiment: two-hybrid library CCmax; conditions: mean of both orientations
T44 chain: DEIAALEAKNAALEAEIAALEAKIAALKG

4H3625-AA = target: T45, 4H3625-AA; experiment: two-hybrid library CCmax; conditions: mean of both orientations
T45 chain: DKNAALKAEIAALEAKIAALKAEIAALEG

4H3940-AA = target: T46, 4H3940-AA; experiment: two-hybrid library CCmax; conditions: mean of both orientations
T46 chain: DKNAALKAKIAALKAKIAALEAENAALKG

4H87-AA = target: T47, 4H87-AA; experiment: two-hybrid library CCmax; conditions: mean of both orientations
T47 chain: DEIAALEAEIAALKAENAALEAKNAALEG

4H816-AA = target: T48, 4H816-AA; experiment: two-hybrid library CCmax; conditions: mean of both orientations
T48 chain: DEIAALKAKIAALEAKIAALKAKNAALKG

B1: O6-bA (peptide)
chain: DKNAQLKQKIAELKQENAELEWKIAQLKQ
interaction score (O8-bA): 1.39 | interaction score (O9-bA): 0.339 | interaction score (O7-bA): 0.795

B2: 4H3638-bA (peptide)
chain: DKNAQLKQEIAELEQKNAELEWKIAQLKQ
interaction score (4H918-bH): 0.343 | interaction score (4H584-bA): -1.67 | interaction score (4H3974-bA): 0.0825 | interaction score (4H906-bA): -1.97 | interaction score (4H850-bA): 0.728 | interaction score (4H570-bA): -0.717 | interaction score (4H883-bN): -2.2 | interaction score (4H3817-bA): -0.0786 | interaction score (4H619-bA): -0.0681 | interaction score (4H3638-bA): 0.115

B3: 4H376-AA (peptide)
chain: DEIAALEAKIAALKAKNAALEAKNAALKG
interaction score (4H406-AA): -0.774 | interaction score (4H376-AA): -1.28 | interaction score (4H963-AA): -1.33 | interaction score (4H688-AA): -1.96

B4: 4H3782-bA (peptide)
chain: DKNAQLKQENAELKQEIAELEWKIAQLKQ
interaction score (4H3855-bA): 0.312 | interaction score (4H462-bN): 1.22 | interaction score (4H3855-bH): 0.603 | interaction score (4H454-bA): 1.64 | interaction score (4H754-bA): -0.898 | interaction score (4H4001-bA): 0.27 | interaction score (4H687-bA): 0.572 | interaction score (4H462-bA): 0.962 | interaction score (4H918-bA): -1.34 | interaction score (4H568-bA): -1.41 | interaction score (4H797-bA): 0.173 | interaction score (4H3843-bA): 1.18 | interaction score (4H883-bA): 0.21 | interaction score (4H717-bA): -0.182 | interaction score (4H908-bA): -1.42 | interaction score (4H953-bA): -1.07 | interaction score (4H3782-bA): 1.29 | interaction score (4H967-bA): 0.0169 | interaction score (4H72-bA): -0.987 | interaction score (4H687-bN): 0.761 | interaction score (4H607-bA): -0.58

B5: 4H2985-AA (peptide)
chain: DKIAALKAKNAALEAKIAALKAEIAALEG
interaction score (4H775-AA): -0.922 | interaction score (4H3409-AA): -0.847 | interaction score (4H3134-AA): -0.682 | interaction score (4H510-AA): -0.541 | interaction score (4H2985-AA): 0.681 | interaction score (4H390-AA): 1.71 | interaction score (4H3625-AA): 0.889 | interaction score (4H3940-AA): -0.918 | interaction score (4H87-AA): -1.48 | interaction score (4H816-AA): -0.519

B6: 4H3843-bA (peptide)
chain: DKNAQLKQKIAELEQEIAELEWENAQLEQ
interaction score (4H4001-bA): -0.268 | interaction score (4H687-bA): -0.85 | interaction score (4H462-bA): -0.841 | interaction score (4H918-bA): -1.1 | interaction score (4H568-bA): -1.79 | interaction score (4H797-bA): -0.879 | interaction score (4H3843-bA): -0.878 | interaction score (4H883-bA): -1.14 | interaction score (4H953-bA): -1.38 | interaction score (4H967-bA): -1.25 | interaction score (4H72-bA): 0.286 | interaction score (4H607-bA): -0.651
